Experimental data from patent publication US20210087281A1 (AGOMAB THERAPEUTICS, published 2021).

Experiments:
[1] = molecular target: T1, native mouse MET on living cells (mouse, UniProt P16056 25-1379); assay: cell-based or functional assay
[2] = molecular target: T1, native mouse MET on living cells; assay: cell-based or functional assay; remark: listed apart in the source
[3] = molecular target: T1, native mouse MET on living cells; assay: cell-based or functional assay; remark: listed apart in the source
[4] = molecular target: T1, native mouse MET on living cells; assay: cell-based or functional assay; remark: listed apart in the source
[5] = molecular target: T2, native human MET on living cells (human, UniProt P08581 25-1390); assay: cell-based or functional assay
T2 sequence (P08581 25-1390): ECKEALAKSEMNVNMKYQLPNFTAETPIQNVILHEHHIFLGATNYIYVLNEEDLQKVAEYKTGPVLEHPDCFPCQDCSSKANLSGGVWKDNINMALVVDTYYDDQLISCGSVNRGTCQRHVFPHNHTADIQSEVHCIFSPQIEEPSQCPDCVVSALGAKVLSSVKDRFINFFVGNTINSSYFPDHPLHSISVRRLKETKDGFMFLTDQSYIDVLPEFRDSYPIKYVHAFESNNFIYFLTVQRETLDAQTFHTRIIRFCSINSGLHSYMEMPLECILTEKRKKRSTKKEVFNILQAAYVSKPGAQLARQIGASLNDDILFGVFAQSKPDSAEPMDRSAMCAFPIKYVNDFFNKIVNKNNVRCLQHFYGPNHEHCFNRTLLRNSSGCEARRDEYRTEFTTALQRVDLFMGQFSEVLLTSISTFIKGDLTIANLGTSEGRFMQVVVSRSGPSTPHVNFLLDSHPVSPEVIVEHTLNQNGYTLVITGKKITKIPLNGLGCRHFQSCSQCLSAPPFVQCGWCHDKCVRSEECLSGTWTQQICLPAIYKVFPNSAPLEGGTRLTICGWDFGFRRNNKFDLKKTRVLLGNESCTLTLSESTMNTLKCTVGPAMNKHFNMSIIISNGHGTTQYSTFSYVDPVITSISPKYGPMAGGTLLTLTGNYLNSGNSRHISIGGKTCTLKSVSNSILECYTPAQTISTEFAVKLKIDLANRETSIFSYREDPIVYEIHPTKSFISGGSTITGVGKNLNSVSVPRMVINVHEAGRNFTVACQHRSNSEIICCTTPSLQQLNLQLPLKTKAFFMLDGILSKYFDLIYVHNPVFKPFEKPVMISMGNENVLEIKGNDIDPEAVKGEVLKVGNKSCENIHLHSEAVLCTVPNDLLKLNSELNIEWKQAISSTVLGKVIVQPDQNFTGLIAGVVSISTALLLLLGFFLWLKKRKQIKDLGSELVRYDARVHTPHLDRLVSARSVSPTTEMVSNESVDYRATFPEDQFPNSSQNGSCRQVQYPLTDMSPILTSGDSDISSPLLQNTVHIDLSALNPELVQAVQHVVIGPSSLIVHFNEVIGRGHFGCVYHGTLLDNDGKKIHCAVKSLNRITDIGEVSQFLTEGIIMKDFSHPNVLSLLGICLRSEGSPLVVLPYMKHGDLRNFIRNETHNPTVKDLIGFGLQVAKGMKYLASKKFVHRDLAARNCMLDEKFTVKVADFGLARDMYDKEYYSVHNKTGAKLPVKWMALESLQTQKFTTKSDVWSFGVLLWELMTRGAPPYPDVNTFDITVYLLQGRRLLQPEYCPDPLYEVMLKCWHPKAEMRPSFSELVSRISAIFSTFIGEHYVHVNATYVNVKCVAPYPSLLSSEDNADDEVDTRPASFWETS

[6] = molecular target: T2, native human MET on living cells; assay: cell-based or functional assay; remark: listed apart in the source
[7] = molecular target: T2, native human MET on living cells; assay: cell-based or functional assay; remark: listed apart in the source
[8] = molecular target: T2, native human MET on living cells; assay: cell-based or functional assay; remark: listed apart in the source
[9] = molecular target: T2, native human MET on living cells; assay: flow cytometry, A549 cells
Method: (§1) We also analysed whether chimeric anti-MET antibodies bound to native human and mouse MET in living cells. […] Antibody binding to cells was analysed by flow cytometry using phycoerythrin-conjugated anti-human IgG1 antibodies (eBioscience) and a CyAn ADP analyser (Beckman Coulter). As a positive control for human MET binding, we used a commercial mouse anti-human MET antibody (R&D Systems) and phycoerythrin-conjugated anti-mouse IgG1 antibodies (eBioscience).
(§2) As a positive control for mouse MET binding we used a commercial goat anti-mouse MET antibody (R&D Systems) and phycoerythrin-conjugated anti-goat IgG1 antibodies (eBioscience). […] Consistent with the data obtained in ELISA, maximal binding (EMAX) varied depending on antibody, but was similar in human and mouse cells.

[10] = molecular target: T1, native mouse MET on living cells; assay: flow cytometry, MLP29 cells
Method: as §1, §2

[11] = molecular target: T3, human MET ECD (human, UniProt P08581 25-932); assay: ELISA, MET ECD in solid phase, mAb 0-20 nM
T3 construct: range 1-932; recombinant ECD made by the applicants; the stated range begins at residue 1, so it includes the signal peptide of the entry; also called hMET; hMET ECD
T3 sequence (P08581 25-932 limits assumed, form in doubt): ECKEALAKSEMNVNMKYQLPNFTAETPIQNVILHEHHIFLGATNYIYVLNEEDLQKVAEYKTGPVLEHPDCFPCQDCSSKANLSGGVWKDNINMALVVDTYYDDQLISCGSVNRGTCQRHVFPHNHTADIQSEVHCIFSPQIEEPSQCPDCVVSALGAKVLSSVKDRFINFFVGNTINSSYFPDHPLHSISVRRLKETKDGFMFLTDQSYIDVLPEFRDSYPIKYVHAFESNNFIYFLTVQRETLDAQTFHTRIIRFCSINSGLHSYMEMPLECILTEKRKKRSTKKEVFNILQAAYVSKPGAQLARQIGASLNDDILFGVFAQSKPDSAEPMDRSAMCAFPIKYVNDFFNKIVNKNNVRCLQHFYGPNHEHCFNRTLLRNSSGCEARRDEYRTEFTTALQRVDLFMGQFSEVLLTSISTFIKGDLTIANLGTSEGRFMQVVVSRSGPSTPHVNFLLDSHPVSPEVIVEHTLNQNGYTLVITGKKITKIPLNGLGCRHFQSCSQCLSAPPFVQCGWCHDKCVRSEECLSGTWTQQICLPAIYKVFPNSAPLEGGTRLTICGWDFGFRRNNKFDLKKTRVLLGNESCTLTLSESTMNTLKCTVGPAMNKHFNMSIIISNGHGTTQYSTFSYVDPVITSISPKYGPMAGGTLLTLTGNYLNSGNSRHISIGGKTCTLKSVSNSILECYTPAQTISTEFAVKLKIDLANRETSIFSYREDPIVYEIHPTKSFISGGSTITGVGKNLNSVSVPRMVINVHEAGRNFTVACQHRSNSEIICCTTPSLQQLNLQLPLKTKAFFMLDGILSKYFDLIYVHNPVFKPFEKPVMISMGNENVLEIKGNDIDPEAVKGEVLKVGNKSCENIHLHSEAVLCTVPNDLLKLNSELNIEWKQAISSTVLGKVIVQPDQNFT
Method: (§3) Production (by transient transfection of mammalian cells) and purification (by protein A affinity chromatography) of the resulting chimeric llama-human IgG1 molecules was outsourced to U-protein Express. Binding of chimeric mAbs to MET was determined by ELISA using hMET or mMET ECD in solid phase and increasing concentrations of antibodies (0-20 nM) in solution. […] Binding capacity (EMAX) varied from antibody to antibody, possibly due to partial epitope exposure in the immobilized antigen, but was similar in the human and mouse setting.

[12] = molecular target: T4, mouse MET ECD (mouse, UniProt P16056 25-931); assay: ELISA, MET ECD in solid phase, mAb 0-20 nM
T4 construct: range 1-931; recombinant ECD made by the applicants; the stated range begins at residue 1; also called mMET; mMET ECD
Method: as §3

[13] = molecular target: T5, human MET-Fc (R&D Systems) (human, UniProt P08581 25-932); assay: competition ELISA, hMET-Fc in solid phase, competitor 0.3 nM biotinylated hHGF
T5 construct: extracellular domain; bought chimeric protein; also called hMET; not shown: Fc portion of human IgG1
T5 sequence (P08581 25-932): as the sequence (P08581 25-932 limits assumed, form in doubt) above
Method: (§4) To investigate along this line, we tested the competition between mAbs and HGF by ELISA. Recombinant human and mouse HGF (R&D Systems) were biotinylated at the N-terminus using NHS-LC-biotin (Thermo Scientific). MET-Fc protein, either human or mouse (R&D Systems), was immobilized in solid phase and then exposed to 0.3 nM biotinylated HGF, either human or mouse, in the presence of increasing concentrations of antibodies (0-120 nM).
(§5) A MET-Fc chimeric protein (either human or mouse) was immobilized in solid phase and exposed to a fixed concentration of biotinylated HGF (either human or mouse), in the presence of increasing concentrations of antibodies. […] Antibody-HGF competition is expressed as IC₅₀ (the concentration that achieves 50% competition) and IMAX (the maximum % competition reached at saturation).

[14] = molecular target: T6, mouse MET-Fc (R&D Systems) (mouse, UniProt P16056 25-929, limits assumed); assay: competition ELISA, mMET-Fc in solid phase, competitor 0.3 nM biotinylated mHGF
T6 construct: bought chimeric protein; also called mMET; not shown: Fc part
Method: as §4, §5

B1: recombinant mouse HGF (R&D Systems) (ligand, UniProt Q08048 33-728, looked up)
chain: QKKRRNTLHEFKKSAKTTLTKEDPLLKIKTKKVNSADECANRCIRNRGFTFTCKAFVFDKSRKRCYWYPFNSMSSGVKKGFGHEFDLYENKDYIRNCIIGKGGSYKGTVSITKSGIKCQPWNSMIPHEHSFLPSSYRGKDLQENYCRNPRGEEGGPWCFTSNPEVRYEVCDIPQCSEVECMTCNGESYRGPMDHTESGKTCQRWDQQTPHRHKFLPERYPDKGFDDNYCRNPDGKPRPWCYTLDPDTPWEYCAIKTCAHSAVNETDVPMETTECIQGQGEGYRGTSNTIWNGIPCQRWDSQYPHKHDITPENFKCKDLRENYCRNPDGAESPWCFTTDPNIRVGYCSQIPKCDVSSGQDCYRGNGKNYMGNLSKTRSGLTCSMWDKNMEDLHRHIFWEPDASKLNKNYCRNPDDDAHGPWCYTGNPLIPWDYCPISRCEGDTTPTIVNLDHPVISCAKTKQLRVVNGIPTQTTVGWMVSLKYRNKHICGGSLIKESWVLTARQCFPARNKDLKDYEAWLGIHDVHERGEEKRKQILNISQLVYGPEGSDLVLLKLARPAILDNFVSTIDLPSYGCTIPEKTTCSIYGWGYTGLINADGLLRVAHLYIMGNEKCSQHHQGKVTLNESELCAGAEKIGSGPCEGDYGGPLICEQHKMRMVLGVIVPGRGCAIPNRPGIFVRVAYYAKWIHKVILTYKL
modifications: biotinylated at the N-terminus using NHS-LC-biotin (in the competition ELISAs only)
phospho-MET ELISA EC50, MLP29 cells [1]: 0.23 nM | phospho-MET ELISA EMAX (% HGF activity), MLP29 cells [1]: 100% | scatter score 0-4, MLP29, 0.001 nM [2]: 0 score | scatter score 0-4, MLP29, 0.004 nM [2]: 1 score | scatter score 0-4, MLP29, 0.012 nM [2]: 2 score | scatter score 0-4, MLP29, 0.037 nM [2]: 3 score | scatter score 0-4, MLP29, 0.111 nM [2]: 4 score | scatter score 0-4, MLP29, 0.333 nM [2]: 4 score | scatter score 0-4, MLP29, 1.000 nM [2]: 4 score | scatter score 0-4, MLP29, 3.000 nM [2]: 4 score | scatter score 0-4, MLP29, 9.000 nM [2]: 4 score | protection from staurosporine, viability EC50, MLP29 cells [3]: 5.35 nM | protection from staurosporine, viability EMAX, MLP29 cells [3]: 58.6% | branches per spheroid, MLP29 cells, 0.5 nM [4]: 32.3 branches | branches per spheroid, MLP29 cells, 2.5 nM [4]: 43.7 branches | branches per spheroid, MLP29 cells, 12.5 nM [4]: 36 branches

B2: 71G12 chimeric llama-human IgG1 mAb (antibody, V domains shown)
VH: QVQLQESGGDLVQPGGSLRVSCVVSGFTFSRYYMSWVRQAPGKGLEWVSSIDSYGYSTYYTDSVKGRFTISRDNAKNTLYLQMNSLKPEDTALYYCARAKTTWSYDYWGQGTQVTVSS
VL: EIVLTQSPSSVTASVGGKVTINCKSSQSVFIASNQKTYLNWYQQRPGQSPRLVISYASTRESGIPDRFSGSGSTTDFTLTISSVQPEDAAVYYCQQAYSHPTFGQGTKVELK
notes: llama VH on human IgG1 CH1-CH2-CH3, llama VL on human kappa CL
phospho-MET ELISA EC50, A549 cells [5]: 2.48 nM | phospho-MET ELISA EMAX (% HGF activity), A549 cells [5]: 70.6% | phospho-MET ELISA EC50, MLP29 cells [1]: 2.01 nM | phospho-MET ELISA EMAX (% HGF activity), MLP29 cells [1]: 75.4% | scatter score 0-4, HPAF-II, 0.001 nM [6]: 0 score | scatter score 0-4, HPAF-II, 0.004 nM [6]: 0 score | scatter score 0-4, HPAF-II, 0.012 nM [6]: 0 score | scatter score 0-4, HPAF-II, 0.037 nM [6]: 0 score | scatter score 0-4, HPAF-II, 0.111 nM [6]: 0 score | scatter score 0-4, HPAF-II, 0.333 nM [6]: 1 score | scatter score 0-4, HPAF-II, 1.000 nM [6]: 2 score | scatter score 0-4, HPAF-II, 3.000 nM [6]: 2 score | scatter score 0-4, HPAF-II, 9.000 nM [6]: 3 score | scatter score 0-4, MLP29, 0.001 nM [2]: 0 score | scatter score 0-4, MLP29, 0.004 nM [2]: 0 score | scatter score 0-4, MLP29, 0.012 nM [2]: 0 score | scatter score 0-4, MLP29, 0.037 nM [2]: 0 score | scatter score 0-4, MLP29, 0.111 nM [2]: 0 score | scatter score 0-4, MLP29, 0.333 nM [2]: 1 score | scatter score 0-4, MLP29, 1.000 nM [2]: 2 score | scatter score 0-4, MLP29, 3.000 nM [2]: 2 score | scatter score 0-4, MLP29, 9.000 nM [2]: 3 score | protection from staurosporine, viability EC50, MCF10A cells [7]: > 32 nM | protection from staurosporine, viability EMAX, MCF10A cells [7]: 39.4% | protection from staurosporine, viability EC50, MLP29 cells [3]: > 32 nM | protection from staurosporine, viability EMAX, MLP29 cells [3]: 39.7% | branches per spheroid, LOC cells, 0.5 nM [8]: 7 branches | branches per spheroid, LOC cells, 2.5 nM [8]: 15.3 branches | branches per spheroid, LOC cells, 12.5 nM [8]: 16 branches | branches per spheroid, MLP29 cells, 0.5 nM [4]: 14 branches | branches per spheroid, MLP29 cells, 2.5 nM [4]: 14.7 branches | branches per spheroid, MLP29 cells, 12.5 nM [4]: 22.7 branches | EC50 [9]: 2.29 nM | EMAX [9]: 110 % relative to control | EC50 [10]: 2.54 nM | EMAX [10]: 121 % relative to control | EC50 [11]: 0.106 nM | EMAX (OD450) [11]: 3.08 AU | EC50 [12]: 0.127 nM | EMAX (OD450) [12]: 2.97 AU | IC50 [13]: 3.87 nM | IMAX [13]: 51.4% | IC50 [14]: 4.05 nM | IMAX [14]: 50.7%

B3: 76G7 chimeric llama-human IgG1 mAb (antibody, V domains shown)
VH: QVQLVESGGNLVQPGGSLRLSCAASGFTFSNYYMSWVRQAPGKGLEWVSDIYSDGSTTWYSDSVKGRFTISRDNAKNTLSLQMNSLKSEDTAVYYCARVKIYPGGYDAWGQGTQVTVSS
VL: QAGLTQPPSVSGSPGKTVTISCAGNSSDVGYGNYVSWYQQFPGMAPKLLIYLVNKRASGITDRFSGSKSGNTASLTISGLQSEDEADYYCASYTGSNNIVFGGGTHLTVL
notes: llama VH on human IgG1 CH1-CH2-CH3, llama VL on human lambda CL
phospho-MET ELISA EC50, A549 cells [5]: 1.86 nM | phospho-MET ELISA EMAX (% HGF activity), A549 cells [5]: 62.3% | phospho-MET ELISA EC50, MLP29 cells [1]: 1.19 nM | phospho-MET ELISA EMAX (% HGF activity), MLP29 cells [1]: 71.5% | scatter score 0-4, HPAF-II, 0.001 nM [6]: 0 score | scatter score 0-4, HPAF-II, 0.004 nM [6]: 0 score | scatter score 0-4, HPAF-II, 0.012 nM [6]: 0 score | scatter score 0-4, HPAF-II, 0.037 nM [6]: 0 score | scatter score 0-4, HPAF-II, 0.111 nM [6]: 0 score | scatter score 0-4, HPAF-II, 0.333 nM [6]: 0 score | scatter score 0-4, HPAF-II, 1.000 nM [6]: 1 score | scatter score 0-4, HPAF-II, 3.000 nM [6]: 2 score | scatter score 0-4, HPAF-II, 9.000 nM [6]: 3 score | scatter score 0-4, MLP29, 0.001 nM [2]: 0 score | scatter score 0-4, MLP29, 0.004 nM [2]: 0 score | scatter score 0-4, MLP29, 0.012 nM [2]: 0 score | scatter score 0-4, MLP29, 0.037 nM [2]: 0 score | scatter score 0-4, MLP29, 0.111 nM [2]: 0 score | scatter score 0-4, MLP29, 0.333 nM [2]: 0 score | scatter score 0-4, MLP29, 1.000 nM [2]: 1 score | scatter score 0-4, MLP29, 3.000 nM [2]: 2 score | scatter score 0-4, MLP29, 9.000 nM [2]: 3 score | protection from staurosporine, viability EC50, MCF10A cells [7]: 25.4 nM | protection from staurosporine, viability EMAX, MCF10A cells [7]: 51.9% | protection from staurosporine, viability EC50, MLP29 cells [3]: 30.1 nM | protection from staurosporine, viability EMAX, MLP29 cells [3]: 50.2% | branches per spheroid, LOC cells, 0.5 nM [8]: 6.7 branches | branches per spheroid, LOC cells, 2.5 nM [8]: 13.3 branches | branches per spheroid, LOC cells, 12.5 nM [8]: 16.3 branches | branches per spheroid, MLP29 cells, 0.5 nM [4]: 14.7 branches | branches per spheroid, MLP29 cells, 2.5 nM [4]: 18.7 branches | branches per spheroid, MLP29 cells, 12.5 nM [4]: 24.7 branches | EC50 [9]: 2.3 nM | EMAX [9]: 121 % relative to control | EC50 [10]: 2.37 nM | EMAX [10]: 115 % relative to control | EC50 [11]: 0.128 nM | EMAX (OD450) [11]: 2.62 AU | EC50 [12]: 0.103 nM | EMAX (OD450) [12]: 2.78 AU | IC50 [13]: 1.47 nM | IMAX [13]: 69.4% | IC50 [14]: 1.56 nM | IMAX [14]: 62.5%
